Measured values: US20230295275A1 (FLAGSHIP PIONEERING INNOVATIONS VI, published 2023)
Changes are numbered by the printed parent chain. Like-named read-outs stand apart in the source and are kept apart here.

B1: AB-1 full-length IgG1 (antibody, V domains shown)
VH: QMQLVQSGTEVKKPGESLKISCKGSGYGFITVWIGWVRQMPGKGLEWMGIIYPGDSETRYSPSFQGQVTISADKSINTAYLQWSSLKASDTAIYYCAGGSGISTPMDVWGQGTTVTVSS
VL: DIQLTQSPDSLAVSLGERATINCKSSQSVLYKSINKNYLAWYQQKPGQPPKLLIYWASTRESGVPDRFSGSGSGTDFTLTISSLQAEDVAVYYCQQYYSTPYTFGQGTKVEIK
B2: AB-2 full-length IgG1 (antibody, V domains shown)
VH: B1 VH with Y27S, F29T
VL: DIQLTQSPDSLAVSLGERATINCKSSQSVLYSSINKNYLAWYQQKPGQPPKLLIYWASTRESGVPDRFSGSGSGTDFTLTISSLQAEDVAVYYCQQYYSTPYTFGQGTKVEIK
B3: AB-11 IgG1 (antibody, V domains shown)
VH: B1 VH with Q1E, M2V, T9A, Y27S, Q65E, N77S, I93M
VL: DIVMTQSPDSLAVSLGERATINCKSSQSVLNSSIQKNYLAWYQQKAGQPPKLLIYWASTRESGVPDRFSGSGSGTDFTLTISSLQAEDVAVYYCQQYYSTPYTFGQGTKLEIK
B4: AB-12 IgG1 (antibody, V domains shown)
VH: B1 VH with Q1E, M2V, T9A, Y27S, G35S, N77S, I93M
VL: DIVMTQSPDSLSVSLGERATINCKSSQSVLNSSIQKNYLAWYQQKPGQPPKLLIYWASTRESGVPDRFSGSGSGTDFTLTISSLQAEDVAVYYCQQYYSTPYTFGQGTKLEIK
B5: AB-6 full-length IgG1 (antibody, V domains shown)
VH: B1 VH with Y27S, F29L, S103Y
VL: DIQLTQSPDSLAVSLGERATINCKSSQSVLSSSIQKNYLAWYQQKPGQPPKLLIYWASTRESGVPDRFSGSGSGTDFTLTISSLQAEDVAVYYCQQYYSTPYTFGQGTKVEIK
B6: AB-13 IgG1 (antibody, V domains shown)
VH: B1 VH with Q1E, M2V, T9A, Y27S, I70L, N77S, I93M, Q111K
VL: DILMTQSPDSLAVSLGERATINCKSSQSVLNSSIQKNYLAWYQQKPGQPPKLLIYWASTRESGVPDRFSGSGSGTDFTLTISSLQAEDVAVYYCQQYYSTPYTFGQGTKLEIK
B7: AB-9 IgG1 (antibody, V domains shown)
VH: B1 VH with Q1E, M2V, T9A, K23Q, Y27S, N77S, I93M
VL: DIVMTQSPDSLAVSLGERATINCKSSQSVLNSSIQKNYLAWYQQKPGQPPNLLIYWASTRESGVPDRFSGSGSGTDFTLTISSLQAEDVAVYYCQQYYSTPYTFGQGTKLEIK
B8: AB-10 IgG1 (antibody, V domains shown)
VH: B1 VH with Q1E, M2V, T9A, E16G, Y27S, N77S, I93M
VL: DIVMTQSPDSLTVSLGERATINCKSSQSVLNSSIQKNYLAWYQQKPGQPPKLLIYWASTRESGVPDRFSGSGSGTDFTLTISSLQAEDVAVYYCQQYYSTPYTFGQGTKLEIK
B9: AB-4 full-length IgG1 (antibody, V domains shown)
VH: B1 VH with Y27S, V32Y, S103H
VL: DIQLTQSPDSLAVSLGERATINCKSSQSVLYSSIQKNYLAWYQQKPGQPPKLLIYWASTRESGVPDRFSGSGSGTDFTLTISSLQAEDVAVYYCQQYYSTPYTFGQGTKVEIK
B10: AB-3 full-length IgG1 (antibody, V domains shown)
VH: B1 VH with Y27S
VL: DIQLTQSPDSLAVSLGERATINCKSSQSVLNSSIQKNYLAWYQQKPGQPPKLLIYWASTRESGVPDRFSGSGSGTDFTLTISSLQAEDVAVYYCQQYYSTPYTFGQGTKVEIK
B11: AB-7 full-length IgG1 (antibody, V domains shown)
VH: B1 VH with Y27S, V32Y, S103Y
VL: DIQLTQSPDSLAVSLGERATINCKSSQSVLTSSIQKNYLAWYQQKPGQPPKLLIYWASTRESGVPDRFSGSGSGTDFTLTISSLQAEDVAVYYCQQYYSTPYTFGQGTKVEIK
B12: AB-8 IgG1 (antibody, V domains shown)
VH: B1 VH with Q1E, M2V, T9A, Y27S, S61N, P62Q, Q65K, N77S, I93M, T114M
VL: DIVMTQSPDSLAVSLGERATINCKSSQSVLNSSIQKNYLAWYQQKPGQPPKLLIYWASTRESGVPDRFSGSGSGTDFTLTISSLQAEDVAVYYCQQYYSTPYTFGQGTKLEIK
B13: AB-5 full-length IgG1 (antibody, V domains shown)
VH: B1 VH with Y27S, V32Y, S103Y
VL: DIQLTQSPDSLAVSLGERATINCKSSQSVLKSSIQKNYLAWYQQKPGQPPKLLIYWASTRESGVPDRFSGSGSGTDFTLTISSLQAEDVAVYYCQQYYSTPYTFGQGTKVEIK

Assays:
[1] = biological target: T1, SARS-CoV-2 receptor binding domain (RBD) (SARS-CoV-2, UniProt P0DTC2 319-527); assay: BLI (Octet), IgG on anti-human Fc biosensors, RBD in solution
[2] = biological target: T1, SARS-CoV-2 receptor binding domain (RBD); assay: BLI (Octet Red96e), IgG1 on AHC biosensors, RBD in solution
[3] = biological target: SARS-CoV-2-Spike (wildtype, on virus) (SARS-CoV-2, UniProt P0DTC2 14-1273); assay: cell-based or functional assay
[4] = biological target: T1, SARS-CoV-2 receptor binding domain (RBD)
[5] = biological target: T1, SARS-CoV-2 receptor binding domain (RBD); assay: BLI (Octet Red96e), IgG on AHC biosensors, RBD in solution
[6] = biological target: T1, SARS-CoV-2 receptor binding domain (RBD); assay: DELFIA, RBD coated on plate, IgG1 in solution

Binder	Kd [2] [nM]	Req [2] [nm shift]	Response [2] [nm]	kobs [2] [s⁻¹]	koff [2] [s⁻¹]	kon [2] [M⁻¹ s⁻¹]	Kd [4] [nM]	binding result [6]	other results
B1	3.3	0.98	1.06	0.023	0.00074	220000	14.6	–	Kd [1]: 9.5 nM; Neutralization (ng/mL), Authentic Virus IC50 [3]: 14200 ng/mL; Neutralization (ng/mL), Authentic Virus IC80 [3]: 25000 ng/mL; Neutralization (ng/mL), Pseudovirus IC50 [3]: 142 ng/mL; Kd [5]: 9.5 nM; koff [5]: 0.0091 s⁻¹; kon [5]: 960000 M⁻¹ s⁻¹
B2	–	–	–	–	–	–	84.9	–	Neutralization (ng/mL), Authentic Virus IC50 [3]: 25000 ng/mL; Neutralization (ng/mL), Authentic Virus IC80 [3]: 25000 ng/mL; Neutralization (ng/mL), Pseudovirus IC50 [3]: 324 ng/mL
B3	–	–	–	–	–	–	–	binds	–
B4	–	–	–	–	–	–	–	binds	–
B5	0.96	0.48	0.485	0.031	0.00029	300000	–	–	–
B6	–	–	–	–	–	–	–	binds	–
B7	–	–	–	–	–	–	–	binds	–
B8	–	–	–	–	–	–	–	binds	–
B9	–	–	–	–	–	–	36.1	–	Neutralization (ng/mL), Pseudovirus IC50 [3]: 86.5 ng/mL
B10	4.5	1.3	1.42	0.022	0.00096	210000	38.8	–	Neutralization (ng/mL), Authentic Virus IC50 [3]: 25000 ng/mL; Neutralization (ng/mL), Authentic Virus IC80 [3]: 25000 ng/mL
B11	1.5	0.55	0.591	0.024	0.00036	230000	–	–	–
B12	–	–	–	–	–	–	–	binds	–
B13	0.3	1.8	1.84	0.012	3.6e-05	120000	–	–	–
